Assay results taken from article PMC8236918, “CYRI-A limits invasive migration through macropinosome formation and integrin uptake regulation” (The Journal of Cell Biology, 2021).

Molecular target: untagged full-length RAC1 Q61L (UniProt P63000 1-192, Q61L)
Assay: SPR; MBP-tagged CYRI immobilised on Sensor chip CM5; purified untagged RAC1 Q61L titrated at different concentrations; steady-state responses fitted to a 1:1 binding model
Settings: both partners purified

Kd: ~38 µM
B1: MBP-tagged full-length CYRI-B (natural protein)
chain: MGNLLKVLTCTDLEQGPNFFLDFENAQPTESEKEIYNQVNVVLKDAEGILEDLQSYRGAGHEIREAIQHPADEKLQEKAWGAVVPLVGKLKKFYEFSQRLEAALRGLLGALTSTPYSPTQHLEREQALAKQFAEILHFTLRFDELKMTNPAIQNDFSYYRRTLSRMRINNVPAEGENEVNNELANRMSLFYAEATPMLKTLSDATTKFVSENKNLPIENTTDCLSTMASVCRVMLETPEYRSRFTNEETVSFCLRVMVGVIILYDHVHPVGAFAKTSKIDMKGCIKVLKDQPPNSVEGLLNALRYTTKHLNDETTSKQIRSMLQ
notes: CYRI-B (encoded by FAM49B), full length; source: E. coli BL21, purified (MBPTrap HP, size-exclusion chromatography)
